Results as given in paper PMC2447227, “The Interaction Between Endopolygalacturonase From Fusarium Moniliforme and PGIP from Phaseolus Vulgaris Studied by Surface Plasmon Resonance and Mass Spectrometry” (Comparative and Functional Genomics, 2001).

How the values were obtained:
[1] = target: T1, endopolygalacturonase from Fusarium moniliforme deglycosylated with endo-H (Fusarium moniliforme, UniProt Q07181 25-373, a single GlcNAc residue at each of the four N-glycosylation sites (observed mass 37110 Da against 36198 Da calculated for the polypeptide)); experiment: SPR; PGIP-2 immobilised by amine coupling on a CM5 chip (4000-5000 RU), BIACORE X; PG solutions in 25 mM ammonium acetate buffer pH 5.0 injected at 5 ul/min; buffer-treated reference flow-cell; bound deglycosylated enzyme eluted with NH4HCO3 pH 8 and analysed by MALDI-TOF MS; details: both partners purified
T1 construct: endopolygalacturonase (PG), Fusarium moniliforme; the same polypeptide as m2, glycans trimmed by endo-H; calculated mass of the polypeptide 36198 Da; also called PG + EndoH; deglycosylated FmPG; source: expressed in Saccharomyces cerevisiae, purified, deglycosylated with endo-H
T1 sequence: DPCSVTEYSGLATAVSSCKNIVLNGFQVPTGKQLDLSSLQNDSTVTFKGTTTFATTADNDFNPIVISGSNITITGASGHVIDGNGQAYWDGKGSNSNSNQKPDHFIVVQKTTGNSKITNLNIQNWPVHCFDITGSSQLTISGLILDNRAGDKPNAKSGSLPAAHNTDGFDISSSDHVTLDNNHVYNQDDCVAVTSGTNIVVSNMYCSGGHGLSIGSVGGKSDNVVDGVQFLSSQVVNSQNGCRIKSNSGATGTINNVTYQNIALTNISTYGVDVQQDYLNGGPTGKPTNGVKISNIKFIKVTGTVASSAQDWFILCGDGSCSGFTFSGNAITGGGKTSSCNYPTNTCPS

[2] = target: T2, endopolygalacturonase from Fusarium moniliforme, native (glycosylated) enzyme expressed in Saccharomyces … (Fusarium moniliforme, UniProt Q07181 25-373, N-linked high-mannose type glycans (up to 14 Man residues in the chain at Asn65); four potential N-glycosylation sites; glycoforms of 43, 46 and 50 kDa); experiment: as above; details: both partners purified
T2 construct: endopolygalacturonase (PG), Fusarium moniliforme; calculated mass of the polypeptide 36198 Da (36.2 kDa); also called FmPG; PG; source: expressed in Saccharomyces cerevisiae, purified
T2 sequence: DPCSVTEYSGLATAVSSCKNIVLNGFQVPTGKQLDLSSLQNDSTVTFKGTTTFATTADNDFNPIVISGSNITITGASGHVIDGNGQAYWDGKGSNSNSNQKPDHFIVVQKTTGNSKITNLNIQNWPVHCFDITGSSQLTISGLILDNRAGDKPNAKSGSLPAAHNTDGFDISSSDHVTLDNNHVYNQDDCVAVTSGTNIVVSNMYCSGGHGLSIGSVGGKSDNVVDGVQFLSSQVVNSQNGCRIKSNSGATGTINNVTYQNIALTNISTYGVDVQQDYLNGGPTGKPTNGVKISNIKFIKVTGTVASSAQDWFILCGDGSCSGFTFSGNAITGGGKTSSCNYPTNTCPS

B1: polygalacturonase-inhibiting protein PGIP-2 of Phaseolus vulgaris (natural protein, UniProt P58822 30-342, looked up)
chain: ELCNPQDKQALLQIKKDLGNPTTLSSWLPTTDCCNRTWLGVLCDTDTQTYRVNNLDLSGLNLPKPYPIPSSLANLPYLNFLYIGGINNLVGPIPPAIAKLTQLHYLYITHTNVSGAIPDFLSQIKTLVTLDFSYNALSGTLPPSISSLPNLVGITFDGNRISGAIPDSYGSFSKLFTSMTISRNRLTGKIPPTFANLNLAFVDLSRNMLEGDASVLFGSDKNTQKIHLAKNSLAFDLGKVGLSKNLNGLDLRNNRIYGTLPQGLTQLKFLHSLNVSFNNLCGEIPQGGNLQRFDVSAYANNKCLCGSPLPACT
notes: a leucine-rich repeat protein; also called bean PGIP-2; source: Nicotiana benthamiana plants infected with PVX, purified
Does B1 bind [1]?
Result: binds

Does B1 bind [2]?
Result: binds
